# From article PMC3737524, “The role of the C-terminal helix of U1A protein in the interaction with U1hpII RNA”
# Assays:
# Details in all cases: protein: recombinant; tags: N-terminal His6; label: 5' biotin; hairpin
# U1A Ile94Pro = U1A Ile94Pro (UniProt P09012 1-101, I94P); assay: SPR; ka 1.2e8 M-1s-1; kd 6e-2 s-1; Biacore 2000 SPR; running buffer with 125 ug/ml yeast tRNA and 62.5 ug/ml acetylated BSA; buffer, salt, pH and temperature as previously described (not given in material)
# U1A Asp92Glu = U1A Asp92Glu (UniProt P09012 1-101, D92E); assay: SPR; ka 4e7 M-1s-1; kd 9e-4 s-1; Biacore 2000 SPR; running buffer with 125 ug/ml yeast tRNA and 62.5 ug/ml acetylated BSA; buffer, salt, pH and temperature as previously described (not given in material)
# U1A Asp92Phe = U1A Asp92Phe (UniProt P09012 1-101, D92F); assay: SPR; ka 6e7 M-1s-1; kd 1.0e-3 s-1; Biacore 2000 SPR; running buffer with 125 ug/ml yeast tRNA and 62.5 ug/ml acetylated BSA; buffer, salt, pH and temperature as previously described (not given in material)
# U1A95 = U1A95 (UniProt P09012 1-95); assay: SPR; ka 2.3e7 M-1s-1; kd 1.8e-2 s-1; Biacore 2000 SPR; running buffer with 125 ug/ml yeast tRNA and 62.5 ug/ml acetylated BSA; buffer, salt, pH and temperature as previously described (not given in material)
# U1A Thr11Ala = U1A Thr11Ala (UniProt P09012 1-101, T11A); assay: SPR; ka 7.1e7 M-1s-1; kd 1.5e-2 s-1; Biacore 2000 SPR; running buffer with 125 ug/ml yeast tRNA and 62.5 ug/ml acetylated BSA; buffer, salt, pH and temperature as previously described (not given in material)
# U1A90 = U1A90 (UniProt P09012 1-90); assay: SPR; ka 2.3e8 M-1s-1; kd 1.0 s-1; Biacore 2000 SPR; running buffer with 125 ug/ml yeast tRNA and 62.5 ug/ml acetylated BSA; buffer, salt, pH and temperature as previously described (not given in material)
# U1A Asp92Ala = U1A Asp92Ala (UniProt P09012 1-101, D92A); assay: SPR; ka 3.3e7 M-1s-1; kd 1.1e-3 s-1; Biacore 2000 SPR; running buffer with 125 ug/ml yeast tRNA and 62.5 ug/ml acetylated BSA; buffer, salt, pH and temperature as previously described (not given in material)
# Sequence of U1A Asp92Ala (P09012 1-101 D92A): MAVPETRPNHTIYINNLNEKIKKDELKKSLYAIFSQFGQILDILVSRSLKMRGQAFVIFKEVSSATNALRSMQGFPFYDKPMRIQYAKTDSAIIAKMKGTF
# Sequence of U1A95 (P09012 1-95): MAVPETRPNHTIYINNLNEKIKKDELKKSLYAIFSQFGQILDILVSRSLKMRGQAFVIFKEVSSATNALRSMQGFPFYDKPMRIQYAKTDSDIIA
# Sequence of U1A Asp92Phe (P09012 1-101 D92F): as the sequence (P09012 1-101 D92A) above, with A92F counted along it
# Sequence of U1A Thr11Ala (P09012 1-101 T11A): as the sequence (P09012 1-101 D92A) above, with T11A, A92D counted along it
# Sequence of U1A Asp92Glu (P09012 1-101 D92E): as the sequence (P09012 1-101 D92A) above, with A92E counted along it
# Sequence of U1A90 (P09012 1-90): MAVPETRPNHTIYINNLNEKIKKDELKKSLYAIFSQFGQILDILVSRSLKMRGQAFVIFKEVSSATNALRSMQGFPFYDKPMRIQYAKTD
# Sequence of U1A Ile94Pro (P09012 1-101 I94P): as the sequence (P09012 1-101 D92A) above, with A92D, I94P counted along it
binder,measurement,setting,value
AGCUUAUCCAUUGCACUCCGGAUGAGCU (structured_RNA) [U1hpII],Kd,U1A Ile94Pro,0.5 nM
same,Kd,U1A Asp92Glu,0.02 nM
same,Kd,U1A Asp92Phe,0.02 nM
same,Kd,U1A95,0.82 nM
same,Kd,U1A Thr11Ala,0.21 nM
same,Kd,U1A90,4.5 nM
same,Kd,U1A Asp92Ala,0.041 nM
